Laboratory results published in patent publication WO2021212049A2.

Experiments:
[1] = target: untagged SARS-CoV-2 RBD expressed in E. coli BL21(DE3) and oxidatively refolded (RBDWT) (SARS-CoV-2) (UniProt P0DTC2); experiment: BLI, RBD expressed in E. coli
[2] = target: Mammalian SARS-CoV2 RBD (residues 331-524) with C-terminal 6XHis Tag (SARS-CoV-2) (UniProt P0DTC2); experiment: ELISA on coated antigen, anti-human IgG-HRP
[3] = target: untagged SARS-CoV-2 RBD expressed in E. coli BL21(DE3) and oxidatively refolded (RBDWT) (SARS-CoV-2) (UniProt P0DTC2); experiment: BLI, RBD expressed in E. coli, 1:1 Langmuir fit

For mAb 2B04 (antibody), the half-life [1] was 23.7 min, the minimum positive concentration [2] was < 5 µg/mL and the Kd [3] was 1.05 nM.
